From US20240207312A1

Columns and labels:
[1] = molecular target: T-cell surface glycoprotein CD4 [Homo sapiens] (Homo sapiens) (UniProt P01730); experiment: cell-based or functional assay
[2] = molecular target: human T-cell receptor beta chain with variable region Vbeta 7.1 (H. sapiens rearranged TCR Vbeta 7.1) (H. sapiens); experiment: cell-based or functional assay
Chain of human T-cell receptor beta chain with variable region Vbeta 7.1 (H. sapiens rearranged TCR Vbeta 7.1) (H. sapiens) (A0A577 whole entry, form in doubt): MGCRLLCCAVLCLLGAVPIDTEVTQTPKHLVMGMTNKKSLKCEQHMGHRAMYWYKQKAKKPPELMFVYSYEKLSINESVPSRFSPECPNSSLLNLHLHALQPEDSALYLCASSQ

Q: “CART20 anti-CD20 chimeric antigen receptor (scFv of anti-CD20 monoclonal antibody Leu16 in the third-generation CAR backbone), expressed on transduced human T cells” was tested. Which CD4-positive cells remaining in the control culture (flow cytometry) [1] did it give?
A: 45%

Q: What about the TCR Vβ7.1-positive cells remaining in the control culture (flow cytometry) [2] of the same substance?
A: 1.2%
